{"source": "patent US10172917B2", "about": "“Targeted oesophageal administration of ZN-α2-glycoproteins (ZAG), methods and formulations thereof” (ASTON UNIVERSITY, priority 2012, dated 2019)", "key": {"[1]": {"tested_on": "rats", "conditions": "rats treated with ZAG; cited from earlier work"}, "[2]": {"molecular_target": "T1, β3-AR (Homo sapiens, UniProt P13945)", "T1 sequence (P13945 whole entry)": "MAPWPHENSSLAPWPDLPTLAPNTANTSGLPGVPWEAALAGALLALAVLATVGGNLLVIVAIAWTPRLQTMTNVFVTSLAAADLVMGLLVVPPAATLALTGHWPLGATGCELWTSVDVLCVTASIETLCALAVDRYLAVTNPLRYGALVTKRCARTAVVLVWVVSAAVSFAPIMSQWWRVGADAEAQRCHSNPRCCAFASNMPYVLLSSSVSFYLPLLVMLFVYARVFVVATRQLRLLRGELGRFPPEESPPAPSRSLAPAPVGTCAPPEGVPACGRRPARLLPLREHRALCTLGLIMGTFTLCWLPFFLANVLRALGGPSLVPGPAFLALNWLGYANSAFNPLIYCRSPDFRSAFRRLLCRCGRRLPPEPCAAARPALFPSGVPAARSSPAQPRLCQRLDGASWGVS", "test": "Cyclic AMP production in CHO cells transfected with human β3-AR", "assay_type": "cell-based", "design": "expressed in transfected cells; host or cells: CHOK1 (CHO-K1) cells", "conditions": "30 min incubation", "experimental": "(§1) FIG. 3C is a graphical representation of the effect of a tryptic digest of ZAG in comparison with intact ZAG on cyclic AMP production by CHO cells transfected with human β1-AR (▪), β2-AR(□) and β3-AR) ( ? ) after 30 min incubation. ZAG (1 mg) was incubated with trypsin (200 μg) in 1 ml 10 mM Tris.HCl, pH8 for 4 h at 37° C. and proteolysis was terminated by addition of the trypsin inhibitor (200 μg). High molecular weight material was removed by a Sephadex G25 column followed by dialysis using an Amicon filtration cell containing a 10 kDa cut-off membrane filter.\n(§2) CHOK1 cells transfected with human β1-, β2- and β3-AR were maintained in DMEM supplemented with 2 mM glutamine, hygromycin B (50 μgml^−1), G418 ([…]) and 10% FCS, under an atmosphere of 10% CO2 in air. For cyclic AMP production cells were grown in 24-well plates in 1 ml nutrient medium, and ZAG, after tryptic digestion as described in the legend to FIG. 3C, was incubated for 30 min. The medium was then removed and 0.5 ml of 20 mM HEPES, pH7.5, 5 mM EDTA and 0.1 mM isobutylmethylxanthine was added, followed by heating on a water bath for 5 min, and cooling on ice for 10 min. The concentration of cyclic AMP was determined using a Parameter cyclic AMP assay kit (New England Biolabs, Hitchin, Herts, UK)."}, "[3]": {"molecular_target": "T1, β3-AR", "conditions": "high affinity binding site on the β3-AR; previous studies; cited from earlier work"}, "[4]": {"tested_on": "ob/ob mice", "test": "Oral ZAG in drinking water to ob/ob mice: body weight, rectal temperature, urinary glucose excretion", "assay_type": "in vivo, mouse", "experimental": "Obese (ob/ob) mice (average weight 65 g) were bred in a colony, and were kept in an air conditioned room at 22+2° C. with ad libitum feeding of a rat and mouse breeding diet (Special Diet Services, Witham, UK) and tap water. […] Animals were grouped (n=5) to receive either ZAG/PBS (50 μg day^−1), or PBS in their drinking water, the experiment was repeated three times after a power analysis was performed. […] The ZAG was replaced every 48 h. […] The dose of ZAG was chosen to be the same as that previously administered i.v. (1), so that a direct comparison could be made, between the two routes. Body weight, food and water intake, urinary glucose excretion, and body temperature, determined by the use of a rectal thermometer (RS Components, Northants, UK), were measured daily. A glucose tolerance test was performed on day 3. Animals were fasted for 12 h, followed by oral administration of glucose (1 gkg^−1 in a volume of 100 μl by gavage). Blood samples were removed from the tail vein at 15, 30, 60 and 120 min and used for the measurement of glucose. Urinary glucose was measured by collecting 0.5 ml urine and testing glucose concentration using a Boots glucose monitor. After 8 days of treatment the animals were terminated by cervical dislocation, tissues were removed and rapidly frozen in liquid nitrogen, and maintained at −80° C. Future work would be to repeat this work in diet-induced animals as alternative to a model with gene alteration, although previous studies have shown the ob/ob mouse to be a good indicator of potential human treatments. Animal studies were conducted under Home Office Licence according to the UKCCCR Guidelines for the care and use of laboratory animals."}, "[5]": {"molecular_target": "T2, human β2-AR (Homo sapiens, UniProt P07550)", "T2 construct": "expressed in transfected cells; host or cells: CHOK1 (CHO-K1) cells", "test": "Cyclic AMP production in CHO cells transfected with human β2-AR", "assay_type": "cell-based", "conditions": "30 min incubation", "experimental": "as §1, §2"}, "[6]": {"tested_on": "ZAG mRNA", "test": "ZAG gene expression in mouse tissues by RT-PCR", "assay_type": "in vivo", "conditions": "mice treated with ZAG orally; compared to stomach, small intestine or colon", "experimental": "Total RNA was extracted from tissues (50-120 mg) and adipocytes with Trizol. RNA samples used for real-time PCR were treated with a DNA-free kit (Ambion) to remove any genomic DNA. The RNA concentration was determined from the absorbance at 260 nm. 1 μg of total RNA of each sample was reverse transcribed to cDNA in a final volume of 20 μl by using a Reverse-iT first strand kit (ABgene). 1 μl of each cDNA sample was then amplified in a PCR mixture containing 0.02 mM of each primer and 1.1⋅Reddy Mix PCR Master Mix (ABgene) in a final volume of 25 μl. Human b-actin was used as a house keeping gene. The PCR products were sequenced commercially to confirm their identity (MWG Biotech). (7)\nRelative ZAG mRNA levels were quantified using real-time PCR with an ABI Prism 7700 Sequence Detector (Applied Biosystems). Mouse β-actin mRNA levels were similarly measured and served as the reference gene. Primers and Taqman probes were designed using PrimerExpress software (Applied Biosystems)."}, "[7]": {"tested_on": "ob/ob mice", "test": "Oral glucose tolerance test in ob/ob mice after 3 days of oral ZAG", "assay_type": "in vivo, mouse", "experimental": "Animals were grouped (n=5) to receive either ZAG/PBS (50 μg day^−1), or PBS in their drinking water, the experiment was repeated three times after a power analysis was performed. […] The ZAG was replaced every 48 h. One group of mice receiving ZAG were also administered propanolol (40 mgkg^−1, p.o.) daily. The dose of ZAG was chosen to be the same as that previously administered i.v. (1), so that a direct comparison could be made, between the two routes. Body weight, food and water intake, urinary glucose excretion, and body temperature, determined by the use of a rectal thermometer (RS Components, Northants, UK), were measured daily. A glucose tolerance test was performed on day 3. Animals were fasted for 12 h, followed by oral administration of glucose (1 gkg^−1 in a volume of 100 μl by gavage). Blood samples were removed from the tail vein at 15, 30, 60 and 120 min and used for the measurement of glucose. Urinary glucose was measured by collecting 0.5 ml urine and testing glucose concentration using a Boots glucose monitor. After 8 days of treatment the animals were terminated by cervical dislocation, tissues were removed and rapidly frozen in liquid nitrogen, and maintained at −80° C. […] Animal studies were conducted under Home Office Licence according to the UKCCCR Guidelines for the care and use of laboratory animals."}, "[8]": {"conditions": "50 μg day^−1 po in drinking water"}}}
{"molecule": "zinc-α2-glycoprotein (protein, listed as Homo sapiens, Recombinant human ZAG, a 41 kDa protein, produced by HEK293F cells transfected with pcDNA3.1 containing human ZAG) QENQDGRYSLTYIYTGLSKHVEDVPAFQALGSLNDLQFFRYNSKDRKSQPMGLWRQVEGMEDWKEDSQLQKAREDMETLKDIVEYYNDSNGSHVLQGRFGCEIENNRSSGAFWKYYYDGKDYIEFNKEIPAWVPFDPAAQITKQKWEAEPVYVQRAKAYLEEECPATLRKYLKYSKNILDRQDPPSVVVTSHQAPGEKKKLKCLAYDFYPGKIDVHWTRAGQVQEPELRGDVLHNGNGTYQSWVVVAVPPQDTAPYSCHVQHSSLAQPLVVPWEAS", "values": [{"measurement": "rise in body temperature", "setting": "[1]", "value": 0.4, "unit": "°C"}, {"measurement": "cyclic AMP production", "setting": "[2]", "value": "stimulated"}, {"measurement": "Bmax", "setting": "[3]", "value": "282±1", "unit": "fmole mg protein^−1"}, {"measurement": "Kd", "setting": "[3]", "value": "78 ± 45", "unit": "nM"}, {"measurement": "increase in rectal temperature", "setting": "[4]; [8]", "value": 0.5, "unit": "°C"}, {"measurement": "reduction in urinary glucose excretion", "setting": "[4]; [8]", "value": 40, "unit": "%"}, {"measurement": "loss of body weight / difference in body weight between ZAG and PBS groups", "setting": "[4]; 50 μg day^−1 po in drinking water, after 8 days treatment", "value": 5, "unit": "g"}, {"measurement": "difference in body weight between the ZAG and PBS groups", "setting": "[4]; 50 μg per day in drinking water, after 5 days of treatment", "value": 3.5, "unit": "g"}, {"measurement": "time of treatment after which increase in rectal temperature became significant", "setting": "[4]; oral ZAG 50 μg per day", "value": 4, "unit": "days"}, {"measurement": "time of treatment after which reduction in urinary glucose excretion became significant", "setting": "[4]; oral ZAG 50 μg per day", "value": 1, "unit": "days"}, {"measurement": "cyclic AMP production", "setting": "[5]", "value": "stimulated"}, {"measurement": "ZAG mRNA in oesophageal tissue", "setting": "[6]", "value": "dramatically increased"}, {"measurement": "insulin response to the glucose challenge", "setting": "[7]; after 3 days of oral ZAG", "value": "decreased the insulin response"}, {"measurement": "peak blood glucose concentration in glucose tolerance test", "setting": "[7]; after 3 days of oral ZAG", "value": "reduced peak blood glucose concentration"}, {"measurement": "reduction in the total area under the curve (AUC) during oral glucose tolerance test", "setting": "[7]; after 3 days of oral ZAG, glucose 1 gkg^−1 po after 12 h fast", "value": 33, "unit": "%"}, {"measurement": "sensitivity to insulin", "setting": "[7]; oral ZAG 50 μg day^−1", "value": "increased sensitivity to insulin"}]}
